In the Immune Epitope Database (IEDB) one finds Kd and IC50 data, which are given here for 16 sequences.

One assay deals with HLA-C*14:02. Nature of the assay: IEDB peptide-MHC binding, purified MHC/direct/fluorescence; filed as Kd, often an IC50 or EC50 that approximates it; ≥ and ≤ were set here for values at or beyond the usual limits of such assays. The conditions noted are these: source organism: Human immunodeficiency virus 1.
Assay [1] concerns the target HLA-A*01:01. The assay is described as above.
A further assay has as its target HLA-B*27:05. The description is as above.
A further assay addresses HLA-A*11:01. Described as above.
In the next assay the target is HLA-B*40:01. Described as above.
For the next assay, the target named is HLA-B*44:02. Described as above.
Assay [2] deals with HLA-B*15:01. The description is as above.
Assay [3] addresses HLA-B*07:02. The description is as above.
The target of a further assay is HLA-B*58:01. The description is as above.
In a further assay the target is HLA-B*08:02. Described as above.
The next assay addresses HLA-A*31:01. The description is as above.
For assay [4], the target named is HLA-A*02:01. The description is as above.
Assay [5] deals with HLA-A*69:01. The description is as above.
Assay [6] addresses HLA-A*03:01. The description is as above.
In another assay the target is HLA-B*46:01. Described as above.
For assay [7], the target named is HLA-A*24:02. The assay is described as above.
In the next assay the target is HLA-B*18:01. Described as above.
The target in assay [8] is HLA-A*24:02. The experiment in a line: IEDB peptide-MHC binding, purified MHC/competitive/fluorescence; ≥ and ≤ were set here for values at or beyond the usual limits of such assays.
For assay [9], the target named is HLA-B*08:01. The description is as above.
Assay [10] has as its target HLA-B*07:02. Described as above.
For assay [11], the target named is HLA-A*02:01. The assay is described as above.
For assay [12], the target named is HLA-B*15:01. The assay is described as above.
The next assay addresses HLA-B*51:01. The experiment in a line: IEDB peptide-MHC binding, purified MHC/direct/fluorescence; filed as Kd, often an IC50 or EC50 that approximates it; ≥ and ≤ were set here for values at or beyond the usual limits of such assays.
The target in the next assay is HLA-C*03:03. The assay is described as above.
For another assay, the target named is HLA-B*15:09. Described as above.
Assay [13] concerns the target HLA-B*08:01. The description is as above. The conditions noted are these: source organism: Vibrio parahaemolyticus AQ3810.
The target of assay [14] is HLA-A*03:01. The experiment in a line: IEDB peptide-MHC binding, purified MHC/competitive/fluorescence; ≥ and ≤ were set here for values at or beyond the usual limits of such assays. The conditions noted are these: source organism: Vaccinia virus WR.
The target of another assay is HLA-A*02:19. The experiment in a line: IEDB peptide-MHC binding, purified MHC/competitive/fluorescence; filed as Kd, often an IC50 or EC50 that approximates it; ≥ and ≤ were set here for values at or beyond the usual limits of such assays. The conditions noted are these: source organism: Human immunodeficiency virus 1.
The target in a further assay is HLA-A*02:03. The description is as above. The conditions noted are these: source organism: Human immunodeficiency virus 1.
The next assay concerns the target HLA-A*02:06. Described as above. The conditions noted are these: source organism: Human immunodeficiency virus 1.
In the next assay the target is HLA-A*02:16. The assay is described as above. Conditions: source organism: Human immunodeficiency virus 1.
In assay [15] the target is HLA-A*02:01. Described as above.
In assay [16] the target is HLA-A*69:01. The assay is described as above. The conditions noted are these: source organism: Human immunodeficiency virus 1.
Another assay addresses HLA-A*02:11. The assay is described as above. The conditions noted are these: source organism: Human immunodeficiency virus 1.
In assay [17] the target is HLA-A*02:12. The description is as above. The conditions noted are these: source organism: Human immunodeficiency virus 1.
A further assay deals with HLA-C*12:03. Nature of the assay: IEDB peptide-MHC binding, purified MHC/direct/fluorescence; filed as Kd, often an IC50 or EC50 that approximates it; ≥ and ≤ were set here for values at or beyond the usual limits of such assays.
In assay [18] the target is HLA-A*02:12. The description is as above. The conditions noted are these: source organism: Ravn virus - Ravn, Kenya, 1987.
For assay [19], the target named is HLA-A*01:01. Nature of the assay: IEDB peptide-MHC binding, purified MHC/competitive/fluorescence; filed as Kd, often an IC50 or EC50 that approximates it; ≥ and ≤ were set here for values at or beyond the usual limits of such assays. Conditions: source organism: Influenza A virus (A/Harbin/1/1988(H1N2)).
The mark [20] stands for this setting: source organism: Coxiella burnetii.
Where [21] appears, read: source organism: Zaire ebolavirus.
Setting [22] is: source organism: dengue virus type 4.
[23] abbreviates: source organism: Vaccinia virus Copenhagen.
Where [24] appears, read: source organism: Vibrio parahaemolyticus.
Setting [25] is: source organism: Vibrio parahaemolyticus AQ3810.
The mark [26] stands for this setting: source organism: Rickettsia bellii.
[27] abbreviates: source organism: Vaccinia virus WR.
Setting [28] is: source organism: Influenza A virus (A/Hong Kong/532/1997(H5N1)).
Setting [29] is: source organism: Marburg virus - Musoke, Kenya, 1980.

As a reminder, the Kd is the constant that tells how readily two partners part at equilibrium. Turning to AFHHVAREL, the Kd in the assay with HLA-C*14:02 was at most 0.001 µM.

AISRLRTQK: the Kd with HLA-A*01:01 [1] (setting [20]) was at least 20 µM; with HLA-B*27:05 (setting [20]) it was at least 20 µM; with HLA-A*11:01 (setting [20]) it was 0.0995 µM; in the assay with HLA-B*40:01 (setting [20]) it was at least 20 µM; with HLA-B*44:02 (setting [20]), at least 20 µM; with HLA-B*15:01 [2] (setting [20]), at least 20 µM. Further, the dissociation constant Kd is at least 20 µM in the assay with HLA-B*07:02 [3] (setting [20]); at least 20 µM in the assay with HLA-B*58:01 (setting [20]); at least 20 µM with HLA-B*08:02 (source organism: Coxiella burnetii Q321); 0.344 µM with HLA-A*31:01 (setting [20]); at least 20 µM with HLA-A*02:01 [4] (setting [20]); at least 20 µM in the assay with HLA-A*69:01 [5] (setting [20]). The Kd with HLA-A*03:01 [6] (setting [20]) is 0.386 µM; with HLA-B*46:01 (setting [20]) it was at least 20 µM; with HLA-A*24:02 [7] (setting [20]), at least 20 µM; with HLA-B*18:01 (setting [20]), at least 20 µM.

What is called IC50 is the concentration that gives 50% inhibition. Read a high IC50 as weaker potency in that assay. ARKHHTKID: the IC50 turned out to be 0.025 µM with HLA-A*24:02 [8] (source organism: Variola virus) and 41.7 µM with HLA-B*08:01 [9] (source organism: Variola virus).

Regarding FPQLSAIAL, the IC50 in the assay with HLA-B*07:02 [10] (setting [21]) was 13.6 µM; with HLA-A*02:01 [11] (setting [21]), at least 179 µM; with HLA-A*24:02 [8] (setting [21]), 17.8 µM; with HLA-B*08:01 [9] (setting [21]), at least 129 µM.

As for IFRLMRTNF, the 50% inhibitory concentration (IC50) with HLA-B*15:01 [12] (setting [21]) worked out at 2.18 µM; in the assay with HLA-B*07:02 [10] (setting [21]), 9.03 µM; with HLA-A*24:02 [8] (setting [21]) it was 0.0398 µM; with HLA-B*08:01 [9] (setting [21]), 55.2 µM.

For the sequence ILRNPGFAL, the Kd was at least 20 µM with HLA-B*51:01 (setting [22]) and 0.211 µM with HLA-C*03:03 (setting [22]).

LAKAIITPI: the half-maximal inhibitory concentration (IC50) in the assay with HLA-B*15:01 [12] (setting [23]) was 24.5 µM; with HLA-B*07:02 [10] (setting [23]), 56.1 µM; with HLA-A*02:01 [11] (setting [23]), 13.7 µM; in the assay with HLA-A*24:02 [8] (setting [23]), 6.28 µM; with HLA-B*08:01 [9] (setting [23]), at least 138 µM.

Regarding LANYAFFAI, the dissociation constant (Kd) with HLA-B*51:01 (source organism: Streptococcus pneumoniae) is 0.23 µM; with HLA-C*03:03 (source organism: Streptococcus pneumoniae R6), at most 0.001 µM.

For MLDQFGVSY, the Kd with HLA-A*01:01 [1] (setting [24]) was 0.021 µM; with HLA-B*27:05 (setting [24]), at least 20 µM; in the assay with HLA-A*11:01 (setting [24]) it was at least 20 µM; with HLA-B*40:01 (setting [24]) it was at least 20 µM; in the assay with HLA-B*44:02 (setting [24]) it was at least 20 µM; with HLA-B*15:01 [2] (setting [24]) it was 0.143 µM. Also, the Kd in the assay with HLA-B*07:02 [3] (setting [24]), in the assay with HLA-B*15:09 (setting [25]), with HLA-B*58:01 (setting [24]), in the assay with HLA-B*08:02 (setting [25]), with HLA-A*31:01 (setting [24]) and in the assay with HLA-A*02:01 [4] (setting [24]) was at least 20 µM throughout. The Kd in the assay with HLA-A*69:01 [5] (setting [24]), with HLA-A*03:01 [6] (setting [24]), with HLA-A*24:02 [7] (setting [24]) and in the assay with HLA-B*08:01 [13] was at least 20 µM each time.

With NIDPEHLDY, the equilibrium dissociation constant (Kd) in the assay with HLA-A*01:01 [1] (setting [26]) is 0.0326 µM; with HLA-B*27:05 (setting [26]) it was at least 20 µM; in the assay with HLA-A*11:01 (setting [26]) it was at least 20 µM; with HLA-B*40:01 (setting [26]), at least 20 µM; in the assay with HLA-B*44:02 (setting [26]), at least 20 µM; with HLA-B*15:01 [2] (setting [26]), at least 20 µM. In addition, the Kd with HLA-B*07:02 [3] (setting [26]), with HLA-B*15:09 (source organism: Rickettsia typhi str. Wilmington), with HLA-B*58:01 (setting [26]), in the assay with HLA-A*31:01 (setting [26]), with HLA-A*02:01 [4] (setting [26]) and with HLA-A*69:01 [5] (setting [26]) was at least 20 µM each time. Also, the Kd with HLA-A*03:01 [6] (setting [26]), with HLA-B*46:01 (setting [26]), in the assay with HLA-A*24:02 [7] (setting [26]) and in the assay with HLA-B*18:01 (setting [26]) was at least 20 µM each time.

Take RLPKRSVML: the half-inhibitory concentration (IC50) with HLA-B*15:01 [12] (setting [27]) came out at 12.7 µM; with HLA-B*07:02 [10] (setting [27]), 7.67 µM; in the assay with HLA-A*02:01 [11] (setting [27]), 2.65 µM; in the assay with HLA-A*03:01 [14], 34.1 µM; in the assay with HLA-A*24:02 [8] (setting [27]), 0.0521 µM; in the assay with HLA-B*08:01 [9] (setting [27]) it was 15.2 µM.

With SLADQLIHL, the Kd with HLA-A*02:19 was 0.00467 µM; with HLA-A*02:03 it was 0.00086 µM; with HLA-A*02:06, at most 0.0001 µM; with HLA-A*02:16, 0.0006 µM; with HLA-A*02:01 [15] (source organism: Human immunodeficiency virus 1), 0.0425 µM; with HLA-A*69:01 [16] it was 0.277 µM. The results for the dissociation constant (Kd) with HLA-A*02:11 and with HLA-A*02:12 [17] were 0.000145 µM and 0.00285 µM, respectively.

In the assay with HLA-C*12:03 (source organism: human gammaherpesvirus 4), SQAPLPCVL yielded a Kd of 0.554 µM.

As for YLMAWKQVL, the dissociation constant Kd with HLA-C*12:03 (setting [28]) stood at 0.022 µM; with HLA-A*02:01 [15] (setting [28]), 0.0004 µM.

YMQQVSEGL: the dissociation constant (Kd) with HLA-A*02:01 [4] (setting [29]) was 0.153 µM; with HLA-A*69:01 [5] (setting [29]), 1.38 µM; in the assay with HLA-C*03:03 (source organism: Orthomarburgvirus marburgense), 0.498 µM; with HLA-A*02:12 [18], 0.002 µM.

In the case of YVSVVSSHY, in the assay with HLA-A*01:01 [19], the dissociation constant (Kd) is 0.549 µM.
